Measurements taken from the supplement of paper PMC12042874.
± gives the uncertainty stated by the source.

Assay: amyloid nucleation score (Sup35N fusion, yeast selection) (log enrichment); library NNK1; higher = more nucleation; inactive = no reads after selection
In short: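 On medium lacking adenine and uracil, psi-negative yeast expressing peptides of 20 random codons fused to Sup35N were grown 7 days at 30°C after a 24-hour induction with 100 μM copper sulfate. Illumina sequencing of input and output plasmid inserts gave the reads, and sequences under 100 input reads were excluded. The nucleation score is the DiMSum log enrichment of output over input reads, centred on the mode score of non-aggregating sequences.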

Row | Substance | amyloid nucleation score
1 | LDILMGGGHTEDCTLPGHLS | 0.307 ± 0.36
2 | DCYSRNVDLYGCGDDGDILL | -0.031 ± 0.25
3 | LSMRWYTSPFAFGIS | -0.114 ± 0.88
4 | SPLSYAI | 1.36 ± 0.58
5 | RVFLTSLEDRVHTLGQATNT | 1.39 ± 0.5
6 | FCLIFDGC | inactive
7 | SQQVHISNVHVLYLRWWTGC | 0.696 ± 0.74
8 | HQELMSFFLLCLH | inactive
9 | MYLCVRLGSIKYFSGVLWS | 0.056 ± 1.4
10 | TSEDMC | -1.18 ± 2.1
11 | SNYYWVAWGDSPLQVHP | 0.626 ± 0.81
12 | HYQMLDAISRSSVYVLSKSR | -0.239 ± 0.29
13 | RIEHISQRQCMTFSIVTVVN | -0.49 ± 1.1
14 | FDSLNAYSLSPSMVMKDSRG | 0.17 ± 0.18
15 | NDCKSQRSRNSMGCQ | inactive
16 | SSKSAWYVRWSVSVQNKGRG | -0.363 ± 0.44
17 | PSHYWNRVLLIWRLSGCVVY | -0.145 ± 0.29
18 | ISTCLRTSFYVDVGNMSFCN | 0.206 ± 0.44
19 | QNRSHKPEFGRMPASQPVTN | 0.447 ± 0.63
20 | GCRGFLIPRMVYS | -0.398 ± 0.97
21 | MGNHCLTR | 1.12 ± 0.58
22 | GFFLSPLVRIISMTEMKVMK | 0.571 ± 1.2
23 | SDGWCRLRCES | -0.429 ± 0.59
24 | SPFASVEEFELL | 0.124 ± 0.33
25 | YYASVTYFILYSHRIELVVR | 1 ± 0.65

Row | Substance | amyloid nucleation score
26 | LTIRQWRFITAVGDLFLWMR | 0.331 ± 0.58
27 | NADVTCVISGLRKTYCVSDD | 0.577 ± 0.64
28 | WCMGHNSYYVKEIVIDVLWL | inactive
29 | SWCVTCVLA | 7.204 ± 0.053
30 | IDKSVGLVHKTHYWFQPWYK | 0.445 ± 0.43
31 | LMWNLTLS | 0.949 ± 0.97
32 | TSCFGVWRHVLSRHSFRTSV | 4.17 ± 0.13
33 | YTQFYVLESIYRTTLCP | 0.554 ± 0.58
34 | ATKSLRIYLARVMHETSTFG | -0.822 ± 0.61
35 | HLIWL | -0.203 ± 1.1
36 | SLYYEG | 0.867 ± 0.45
37 | IDHSTRVNPGEPLQVLRGGL | 4.29 ± 0.088
38 | MFSRF | 0.607 ± 0.79
39 | KLKQVCPLTPVSRVSEQGKK | -0.441 ± 1.1
40 | CTGSVWYAPLWMWWEWLR | 0.498 ± 0.69
41 | MLRFRCVRQP | 0.102 ± 0.35
42 | GSKGMGSERQVECFTKI | -0.505 ± 0.37
43 | FPWSGAWMD | 0.029 ± 1
44 | GQDSGSSNVFSSCICNLHVF | 7.715 ± 0.046
45 | THVSDFLWDVNVSGNNTCSR | 1.14 ± 0.37
46 | EYGVSLV | 0.089 ± 0.53
47 | AWNGFDWYHARFCTMSTYIL | -0.56 ± 0.38
48 | DRLVDTNYRASGYPVRYMVS | -1.31 ± 0.78
49 | WASGRGSSVRIKQLPHDRQQ | -0.779 ± 0.43
50 | LFFVPMARVW | 0.01 ± 0.54

Row | Substance | amyloid nucleation score
51 | RLNHEFFGYKRKTKLAGGLR | -0.107 ± 1.2
52 | KLTCRDSRFVRAIFVMSKSA | -0.458 ± 0.3
53 | LINFLLVTVCTSWIGISLCV | 0.358 ± 0.39
54 | SCYDVIVRWDFFLQQFCKMQ | 1.73 ± 0.12
55 | GLSWGIFALDTRSPGILRSV | -0.436 ± 0.35
56 | GVVSKQSYVRITLGTGPSGE | 0.476 ± 1.2
57 | LLVESKAYGWHVMRGQTWTR | -0.045 ± 0.42
58 | MSMDWICVTTYKAWSARLER | 0.689 ± 0.26
59 | EIWWMVKVQLSVEYSSGNRL | 1.16 ± 0.39
60 | WQFYTVL | -0.246 ± 0.31
61 | GIRMRGVSDLSLLRM | 0.163 ± 0.77
62 | THSSGINVTPPDVCSLITLT | -0.159 ± 1.2
63 | DCSFRCMYAIMLYVLCLSHN | 0.422 ± 0.35
64 | GLEDRNRWKVWFITLCRGIA | 0.71 ± 1.1
65 | NRHVSRRRHSEISLVRKGGA | -0.313 ± 0.33
66 | ITQIADLWHKMT | -0.954 ± 0.89
67 | LLQSGGLVIRVHCSMFTVGA | -0.889 ± 0.78
68 | HSAITNCRRVVTALIYRRVM | -0.875 ± 2.4
69 | INRVSLCTVEAVLSHEDACG | -0.494 ± 0.32
70 | YNPIVWSTAY | inactive
71 | SYQLSSVMDLAWMTHSTFGS | 1.8 ± 0.2
72 | IECCFAYGRYLMWVGMYGSK | 0.79 ± 0.59
73 | LYSLATIDNYMPWCQGSSGS | inactive
74 | LYLLSDNFR | 1.68 ± 0.72
75 | WKFALSLTRSDWAGHGPGHE | 2.02 ± 0.16

Row | Substance | amyloid nucleation score
76 | YYCRNPRSMG | -0.134 ± 1.1
77 | LAWCNY | 0.765 ± 0.57
78 | WMYDSLDTSMTLANSHLQTL | -0.098 ± 0.51
79 | GYIDFCFLWD | -0.333 ± 0.21
80 | RIFNKDSLGI | -0.554 ± 0.48
81 | FLHRM | 0.062 ± 0.75
82 | YLFSFWFPRYRHVIFIGYTL | 0.531 ± 0.53
83 | STTLQERVYSAPATDLRDWA | 0.246 ± 0.37
84 | GNMSPFKNLTFAEQLDAPRD | 0.016 ± 1.2
85 | LTWHRLSISHTVAYLSTDSI | inactive
86 | MCLAMSIFDKTENK | -0.731 ± 0.73
87 | MSAIVSHYLVHCKFQSGNSH | 3.63 ± 0.12
88 | SGNCSVSW | 0.755 ± 0.97
89 | LTCFVISVGTSSLIIDFWI | -0.647 ± 0.39
90 | NIVNYFSCLKALNKFLHKMG | 0.609 ± 0.26
91 | NIGIRI | 0.095 ± 0.39
92 | EGHWGFWPIGSFTCTSFLVY | 0.86 ± 0.58
93 | ARYYIVREGSEKCDLLTGRG | 0.004 ± 0.61
94 | GGTNFKDDDV | 0.683 ± 1
95 | FRFSGHWGETIASRTG | 0.376 ± 0.95
96 | LGIVSCTSQNPNGVDTSIFG | 0.117 ± 1.4
97 | GLVVIGRSCDDYESIMTRSM | 0.171 ± 0.41
98 | EGLNNSLSSYTKDWAQVVLN | -0.079 ± 0.32
99 | QTMVTLGSKLIYDESGIVMV | inactive
100 | KCWLHCWWTVNKTLRYAVRS | -0.531 ± 0.47

Row | Substance | amyloid nucleation score
101 | VFGSCWYLYFVYLPTNRFRM | -0.134 ± 0.3
102 | VLVRAWTLDCCLLFVMMVVS | 0.558 ± 0.46
103 | RLHPCRVATRPQHYT | inactive
104 | RRSISWNIRSEDLR | 0.85 ± 0.48
105 | RSLKMINNYISKLHVLMGFH | -0.281 ± 0.76
106 | TRVGLVPSLGDRSDNYIVRI | 0.087 ± 0.39
107 | LYCSNLILVWLFCRSDISVR | 5.17 ± 0.056
108 | TYSRARAQSIMFVRLFKACL | 0.643 ± 0.34
109 | WRILYRC | 0.41 ± 0.34
110 | TMYWITQKVEKSSHMVCRVT | 2.61 ± 0.078
111 | CSLRYVLHYRYVGLETATNT | 0.763 ± 0.5
112 | YQVCTFSNNGIWLWRLSIPH | 1.81 ± 0.23
113 | TYGMYFLFSYVSVCQY | 2.3 ± 0.13
114 | YSILMVNWMFWCFVEAWNHD | 0.623 ± 0.56
115 | ADYTQCRLYVM | -0.132 ± 0.21
116 | DDRTKLQLSMRWEQQIMRHR | 3.48 ± 0.12
117 | GFGWLCYCGPYNLGRFSLSV | -0.124 ± 0.66
118 | HYSTEEGRVCGSVKQQKAWL | -0.296 ± 0.52
119 | ANTPRFMNTLV | -0.824 ± 0.51
120 | GVKFNSDMSCQFRRVLVEIA | -0.057 ± 1.7
121 | LNRSGIISITIMTWSFGNAQ | 2.75 ± 0.13
122 | ISSECQVICYLLHEFSPASV | 1.35 ± 0.25
123 | GNICSTLAINVGLIFSKECV | inactive
124 | RSASAREHNTALRSRPARVG | -0.353 ± 1.7
125 | SCNVFGASWRLTVNDVWYKW | 0.651 ± 0.22

Row | Substance | amyloid nucleation score
126 | ANFGFWFAFYSAARSDRTSL | -0.421 ± 1.2
127 | PAVCLCNGRMDVSKNLWLCF | 7.445 ± 0.061
128 | LSSAGYQFMFLSSFLGWEVN | -0.492 ± 0.44
129 | INFDRNFF | -0.54 ± 0.31
130 | GYLQR | 0.158 ± 0.59
131 | TKILRP | 0.33 ± 0.22
132 | SLCTFLGFWGHVFSLRVNRL | -0.156 ± 1.1
133 | VYLFSVLVDVSRMSNGMLTR | -0.211 ± 1.2
134 | FGSSPRSDVVKHQNINEEVI | 0.581 ± 0.61
135 | VVVSLK | -0.916 ± 0.86
136 | WIFIGTIPILLIGDRRSANV | 6.35 ± 0.066
137 | TWLQPLNRTMNWMTSTAGFR | inactive
138 | YSYNRSIASFFYFMSYCVSL | inactive
139 | NRPHTTYFFSFKSQF | 5.61 ± 0.063
140 | VDRFEVLTYLKE | -0.175 ± 1
141 | QVRSSDSGLVNHFVNE | inactive
142 | DIGLREFNWVTNITTLPQLG | 1.33 ± 0.61
143 | DLLVNCDAVKLVYLSGYVDV | 0.342 ± 0.23
144 | ILGVFNTIVVFKR | 4.9 ± 0.066
145 | NNCYLDTSLSNLIRDGSSPV | -0.453 ± 0.64
146 | VFHVAKSRRVTHPSILISL | 1.53 ± 0.74
147 | PSSNLRFFTLNFAFLVPISS | -0.521 ± 0.64
148 | SFLRGMASWLTQMHGKGWGW | 0.239 ± 0.69
149 | TFIFAGDIT | 1.38 ± 0.17
150 | SKGFDDESTAGSFFKLMLLY | -1.9 ± 2.4

Row | Substance | amyloid nucleation score
151 | SVRANIA | 1.34 ± 0.38
152 | VAPVEYICELTLWA | -1.22 ± 2.7
153 | DLVYVSRLYISVNRYPSWFV | -0.462 ± 0.51
154 | FLMKMKMSVFVLEYSILECM | -1.12 ± 1.1
155 | YHSKLFVGGYWLYREDGREY | 0.812 ± 0.24
156 | SGMGMSPLMMIWCRSSNRDL | inactive
157 | SFFDVLFKITWYNRVLMC | 0.362 ± 0.79
158 | YVPALYRVSGLCYLLTNHEF | 0.557 ± 0.18
159 | IGDRNVNLGVQVVVMKE | 7.031 ± 0.048
160 | TLLSVTYSCIRMPVPMAYRS | 4.42 ± 0.085
161 | ERMGDSQGPKAGLWSFKYP | -0.226 ± 0.97
162 | VHSGTKEKGF | 1.05 ± 0.54
163 | LACYDQPATSRSTAGSCPVP | 1.55 ± 0.7
164 | NPGAYKYHSLSYTSRGGMFV | 0.486 ± 0.38
165 | ESNMGNGSRGIDV | 0.821 ± 1.1
166 | ILRCRGNALNAYWRGSFNR | 4.59 ± 0.078
167 | VRKSVSTFT | 0.055 ± 0.37
168 | WDTTVWMIPFNARVFFVGLC | -0.083 ± 0.35
169 | GLNSDGLWLLSLNTRKSRAH | -0.349 ± 1.1
170 | WLLREIERMDLGDWQLELNI | -0.707 ± 0.83
171 | VVDVQALSWSRGADLSSW | 1.02 ± 0.68
